Two substances from patent US20040077054A1 can be followed below.

The target in assay [1] is 16K hPRL binding sites in human placental membrane fractions (human). Description: Scatchard analysis, radioligand binding, second trimester human placental membranes.
Assay [2] shares this target. The assay can be described thus: Scatchard analysis, radioligand binding, first trimester human placental membranes.
Assay [3] shares this target. The assay can be described thus: Scatchard analysis, radioligand binding, third trimester human placental membranes.
Assay [4] has the same target. The assay can be described thus: specific binding of 100 pM 125I-16K rPRL (counts displaced by 400 nM 16K hPRL), third trimester placental membranes, n=3.
For assay [5] the target is unchanged. The assay can be described thus: specific binding of 100 pM 125I-16K rPRL (counts displaced by 400 nM 16K hPRL), second trimester placental membranes, n=3.
The target is the same in assay [6]. The assay can be described thus: specific binding of 100 pM 125I-16K rPRL (counts displaced by 400 nM 16K hPRL), first trimester placental membranes, n=4.

On to 16K N-terminal human prolactin (ligand), for which the maximal binding (Bmax) (fmol/µg protein) in assay [1] worked out at 630; in assay [2], 3.19; in assay [3], 775.

On to “125I-16K rPRL (rat 16K prolactin, radioiodinated) (from UniProt P01237 30-174) (ligand)”, for which the values for the maximal specific binding (cpm/5 µg protein) in assay [4], in assay [5] and in assay [6] were 4040, 1780 and 357, respectively.
